Assay results: article PMC5663815, “Macrophage migration inhibitory factor (MIF) modulates trophic signaling through interaction with serine protease HTRA1” (Cellular and Molecular Life Sciences: CMLS, 2017)

Target: T1, Recombinant human HTRA1 (R&D Systems, 2916-SE) (human, UniProt Q92743 23-480, RED-NHS dye label (Monolith NT Protein Labeling Kit RED-NHS), molar dye to protein ratio 5:1)
T1 construct: Serine protease HTRA1, human, recombinant, R&D Systems catalogue 2916-SE; In the functional rows the HTRA1 was full-length HTRA1 (pcDNA3) in medium of stably transfected HEK293 cells, not this bought protein; also called labeled HTRA1; source: bought: R&D Systems, 2916-SE
T1 sequence (Q92743 23-480): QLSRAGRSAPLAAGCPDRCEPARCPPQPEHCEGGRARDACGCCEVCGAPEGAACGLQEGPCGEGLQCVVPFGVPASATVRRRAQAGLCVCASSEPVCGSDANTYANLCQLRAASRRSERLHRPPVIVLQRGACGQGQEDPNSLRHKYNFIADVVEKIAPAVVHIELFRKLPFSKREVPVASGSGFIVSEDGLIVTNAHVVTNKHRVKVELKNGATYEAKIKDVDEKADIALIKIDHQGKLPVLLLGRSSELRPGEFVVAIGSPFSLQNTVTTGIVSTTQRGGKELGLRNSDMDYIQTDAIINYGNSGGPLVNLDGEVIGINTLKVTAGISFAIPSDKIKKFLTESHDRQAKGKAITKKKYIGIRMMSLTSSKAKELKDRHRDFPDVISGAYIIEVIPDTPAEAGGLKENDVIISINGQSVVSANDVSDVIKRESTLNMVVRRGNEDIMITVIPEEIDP
Assay: MST; labeled HTRA1 constant at 65 nM, unlabeled MIF titrated 2.28 nM to 1 µM; 50 mM Tris, 0.05% Tween-20, pH 8.0; 20 min at RT, 25 °C; Monolith NT.115, 40% LED, 80% MST power; Thermophoresis + T-jump signal
Conditions: both partners purified

- Kd: 147 nM
B1: MIF (Pepro-Tech, 300-69) (natural protein, UniProt P14174 1-115, looked up)
chain: MPMFIVNTNVPRASVPDGFLSELTQQLAQATGKPPQYIAVHVVPDQLMAFGGSSEPCALCSLHSIGKIGGAQNRSYSKLLCGLLAERLRISPDRVYINYYDMNAANVGWNNSTFA
notes: also called unlabeled MIF; non-labeled MIF; source: bought: Pepro-Tech, 300-69
